Measurements: PMC10792529 (Proteins, 2023)

Target: wild-type Ralstonia solanacearum Isocyanide Hydratase (Ralstonia solanacearum)
Experiment: crystal structure

**Q.** For “wild-type Ralstonia solanacearum Isocyanide Hydratase (enzyme)”, which stoichiometry N is on record?
**A.** The stoichiometry N was 2.
